Data as given in PMC7387808 (Cellular and Molecular Immunology, 2020).

Target: T1, TOM70 (full-length, recombinant, analyte of the BLI) (human, UniProt O94826 1-608)
T1 construct: also called Mitochondrial import receptor subunit TOM70
T1 sequence (looked up): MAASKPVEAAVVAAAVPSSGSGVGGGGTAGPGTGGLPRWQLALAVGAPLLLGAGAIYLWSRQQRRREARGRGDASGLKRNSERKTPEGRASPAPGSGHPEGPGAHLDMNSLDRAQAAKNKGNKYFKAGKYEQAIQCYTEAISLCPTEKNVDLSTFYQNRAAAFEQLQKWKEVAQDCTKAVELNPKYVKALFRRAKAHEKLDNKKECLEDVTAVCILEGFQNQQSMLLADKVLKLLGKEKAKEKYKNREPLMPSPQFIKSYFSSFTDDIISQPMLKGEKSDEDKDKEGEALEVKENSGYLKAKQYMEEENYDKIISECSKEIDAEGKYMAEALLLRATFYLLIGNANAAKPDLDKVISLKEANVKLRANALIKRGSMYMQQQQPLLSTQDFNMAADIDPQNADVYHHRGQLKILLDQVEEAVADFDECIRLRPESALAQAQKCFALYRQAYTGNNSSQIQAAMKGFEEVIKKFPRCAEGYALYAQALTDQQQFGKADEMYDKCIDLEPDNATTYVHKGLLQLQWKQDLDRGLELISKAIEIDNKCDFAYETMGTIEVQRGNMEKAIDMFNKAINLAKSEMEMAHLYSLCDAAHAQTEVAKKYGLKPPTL
Assay: BLI; […]; kinetics ([…]) buffer 1x PBS pH 7.4, 0.1% BSA, 0.02% Tween-20; association 5 min, dissociation 5 min; […]; 1:1 global fit
Settings: both partners purified

B1: SARS-CoV Orf9b, biotinylated (C-terminal Avi-His6) (natural protein)
chain: MDPNQTNVVPPALHLVDPQIQLTITRMEDAMGQGQNSADPKVYPIILRLGSQLSLSMARRNLDSLEARAFQSTPIVVQMTKLATTEELPDEFVVVTAK
notes: also called Biotinylated Orf9b
B1 was tested. Which Kd did it give?
Its Kd is 41.6 ± 1.01 nM.

And the koff?
Its koff is 0.00244 s⁻¹.

And the kon?
Its kon is 58600 M⁻¹ s⁻¹.
